Results on two molecules are retold here after patent publication US20200317768A1 (published 2020).

One may read the Kd as the constant that tells how readily two partners part at equilibrium.

Test [1] deals with T1, cynomolgus monkey FcγRIIb extracellular domain, C-terminal His-tag (cynomolgus monkey).
T1 construct: also called cyno FcγRIIb; cynoFcγRIIb
T1 chain: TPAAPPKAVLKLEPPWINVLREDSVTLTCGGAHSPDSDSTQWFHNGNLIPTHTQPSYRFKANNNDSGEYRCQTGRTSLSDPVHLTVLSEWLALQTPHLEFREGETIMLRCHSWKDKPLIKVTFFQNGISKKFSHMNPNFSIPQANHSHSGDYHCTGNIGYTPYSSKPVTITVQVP
As to the kind of experiment: SPR (Biacore); KD of SG1 / KD of variant.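 Further: relative to parent M103205H795-SG1 carrying the SG1 human heavy chain constant region.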 The protocol:
(§1) The kinetic analysis of interactions between these antibodies and FcγR was carried out using BIACORE® T200 or BIACORE® 4000 (GE Healthcare). HBS-EP+ (GE Healthcare) was used as the running buffer, and the measurement temperature was set to 25° C. A chip produced by immobilizing Protein A. Protein A/G or mouse anti-human IgG kappa light chain (BD Biosciences) onto a Series S Sensor Chip CM4 or CM5 (GE Healthcare) by the amine-coupling method was used. […] After the measurement, the antibody captured on the chip was washed off by allowing reaction with 10 mM glycine-HCl, pH1.5 and 25 mM NaOH so that the chip was regenerated and used repeatedly. The sensorgrams obtained as measurement results were analyzed by the 1:1 Langmuir binding model using the BIACORE® Evaluation Software to calculate the binding rate constant ka (L/mol/s) and dissociation rate constant kd (l/s), and the dissociation constant KD (mol/L) was calculated from these values. […] Regarding such interactions, KD values were calculated using the following 1:1 binding model described in BIACORE® T100 Software Handbook BR1006-48 Edition AE.
(§2) The behavior of interacting molecules according to the 1:1 binding model on BIACORE® can be described by Equation 1: Req=C·R max/(KD+C)+RI, wherein, Req is a plot of steady-state binding levels to analyte concentration. C is concentration, RI is bulk refractive index contribution in the sample, and Rmax is analyte binding capacity of the surface. When this equation is rearranged, KD can be expressed as Equation 2: KD=C·Rmax/(Req−RI)−C. KD can be calculated by substituting the values of Rmax, RI, and C into Equation 1 or Equation 2. From the current measurement conditions, RI=0, C=2 μmol/L can be used.
A general note: In SPR one partner is held on a chip, and binding of the other changes the refractive index at the surface.

Test [2] concerns the target T2, human FcγRIIaR extracellular domain, C-terminal His-tag (human, UniProt P12318 34-217).
T2 construct: also called human FcγRIIa (type R); FcgRIIaR
T2 chain: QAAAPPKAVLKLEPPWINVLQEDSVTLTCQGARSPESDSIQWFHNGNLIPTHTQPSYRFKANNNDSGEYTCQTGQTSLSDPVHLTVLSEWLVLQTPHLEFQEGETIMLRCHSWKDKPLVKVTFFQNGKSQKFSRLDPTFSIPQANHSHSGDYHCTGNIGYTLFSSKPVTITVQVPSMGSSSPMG
As to the kind of experiment: SPR (Biacore); KD of SG1 / KD of variant.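 Further: relative to parent M103205H795-SG1 carrying the SG1 human heavy chain constant region.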 The protocol:
as §1, §2

The target in test [3] is T3, cynomolgus monkey FcγRIIa1 extracellular domain, C-terminal His-tag (cynomolgus monkey).
T3 construct: also called cyno FcγRIIa1; cynoFcgRIIa1
T3 chain: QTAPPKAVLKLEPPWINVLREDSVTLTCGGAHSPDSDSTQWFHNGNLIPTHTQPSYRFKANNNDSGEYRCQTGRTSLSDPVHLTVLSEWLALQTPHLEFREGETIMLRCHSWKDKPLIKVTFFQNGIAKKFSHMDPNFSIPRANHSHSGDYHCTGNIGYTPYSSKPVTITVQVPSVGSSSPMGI
As to the kind of experiment: SPR (Biacore); KD of SG1 / KD of variant.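 Further: relative to parent M103205H795-SG1 carrying the SG1 human heavy chain constant region.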 The procedure: as §1, §2

Test [4] addresses T4, cynomolgus monkey FcγRIIIaS extracellular domain, C-terminal His-tag (cynomolgus monkey, UniProt Q8SPW2 21-206 at identity 1.00)).
T4 construct: also called cyno FcγRIIIaS; cynoFcγRIIIaS
T4 chain: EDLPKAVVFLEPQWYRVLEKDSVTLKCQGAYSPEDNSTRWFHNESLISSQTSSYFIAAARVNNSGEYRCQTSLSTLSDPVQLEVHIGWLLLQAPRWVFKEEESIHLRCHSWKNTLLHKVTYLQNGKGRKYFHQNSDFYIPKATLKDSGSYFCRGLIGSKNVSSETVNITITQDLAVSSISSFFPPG
As to the kind of experiment: SPR (Biacore); KD of SG1 / KD of variant.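 Further: relative to parent M103205H795-SG1 carrying the SG1 human heavy chain constant region.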 The protocol:
as §1, §2

The target in test [5] is T5, cynomolgus monkey FcγRIIa3 extracellular domain, C-terminal His-tag (cynomolgus monkey).
T5 construct: also called cyno FcγRIIa3; cynoFcgRIIa3
T5 chain: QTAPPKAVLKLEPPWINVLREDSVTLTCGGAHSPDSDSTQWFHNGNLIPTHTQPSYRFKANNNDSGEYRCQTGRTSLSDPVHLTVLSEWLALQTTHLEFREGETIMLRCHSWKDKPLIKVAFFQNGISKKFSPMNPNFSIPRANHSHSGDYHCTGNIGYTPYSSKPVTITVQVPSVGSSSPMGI
As to the kind of experiment: SPR (Biacore); KD of SG1 / KD of variant. The procedure: as §1, §2

Test [6] addresses T6, human FcγRIIb extracellular domain, C-terminal His-tag (human, UniProt P31994 43-217).
T6 construct: also called human FcgRIIb; FcgRIIb
T6 sequence: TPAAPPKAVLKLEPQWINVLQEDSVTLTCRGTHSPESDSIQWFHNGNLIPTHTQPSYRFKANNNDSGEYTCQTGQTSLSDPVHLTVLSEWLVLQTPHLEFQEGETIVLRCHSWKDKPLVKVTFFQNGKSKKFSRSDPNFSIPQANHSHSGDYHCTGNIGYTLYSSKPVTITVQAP
As to the kind of experiment: SPR (Biacore); KD of SG1 / KD of variant. The protocol: as §1, §2

For test [7], the target named is T7, cynomolgus monkey FcγRIIa2 extracellular domain, C-terminal His-tag (cynomolgus monkey).
T7 construct: also called cyno FcγRIIa2; cynoFcgRIIa2
T7 chain: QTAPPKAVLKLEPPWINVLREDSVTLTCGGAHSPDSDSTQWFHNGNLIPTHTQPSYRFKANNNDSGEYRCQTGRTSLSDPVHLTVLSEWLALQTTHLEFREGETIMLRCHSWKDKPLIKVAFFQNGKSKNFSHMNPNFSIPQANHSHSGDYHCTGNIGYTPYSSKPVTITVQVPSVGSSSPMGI
The test is described as follows: SPR (Biacore); KD of SG1 / KD of variant. The procedure:
as §1, §2

The target of test [8] is T1, cynomolgus monkey FcγRIIb extracellular …. As to the kind of experiment: SPR (Biacore), antibody captured, FcgR analyte.
Test [9] concerns the target T2, human FcγRIIaR extracellular domain, …. As to the kind of experiment: SPR (Biacore), antibody captured, FcgR analyte.
Test [10] addresses T8, human FcγRIIaH extracellular domain, C-terminal His-tag (human, UniProt P12318 34-217).
T8 construct: also called human FcγRIIa (type H); FcgRIIaH
T8 sequence: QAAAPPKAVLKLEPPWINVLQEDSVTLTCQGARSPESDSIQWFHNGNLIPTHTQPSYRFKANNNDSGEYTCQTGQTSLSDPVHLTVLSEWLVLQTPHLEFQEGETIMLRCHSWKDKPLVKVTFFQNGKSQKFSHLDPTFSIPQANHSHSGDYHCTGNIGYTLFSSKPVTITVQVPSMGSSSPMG
As to the kind of experiment: SPR (Biacore), antibody captured, FcgR analyte.

Test [11] concerns the target T9, human FcγRIIIaV extracellular domain, C-terminal His-tag (human, UniProt P08637 17-208).
T9 construct: also called human FcgRIIIaV; FcgRIIIaV
The test is described as follows: SPR (Biacore), antibody captured, FcgR analyte.

Test [12] concerns the target T3, cynomolgus monkey FcγRIIa1 …. The test is described as follows: SPR (Biacore), antibody captured, FcgR analyte.
Test [13] has as its target T4, cynomolgus monkey FcγRIIIaS …. As to the kind of experiment: SPR (Biacore), antibody captured, FcgR analyte.
Test [14] deals with T5, cynomolgus monkey FcγRIIa3 …. As to the kind of experiment: SPR (Biacore), antibody captured, FcgR analyte.
In test [15] the target is T6, human FcγRIIb extracellular domain, …. As to the kind of experiment: SPR (Biacore), antibody captured, FcgR analyte.
Test [16] deals with T7, cynomolgus monkey FcγRIIa2 …. The test is described as follows: SPR (Biacore), antibody captured, FcgR analyte.
The target of test [17] is T10, cynomolgus monkey FcγRIIa3 extracellular domain, C-terminal His-tag (cynomolgus monkey).
T10 construct: also called cyno FcγRIIa3; FcgRIIa3
T10 chain: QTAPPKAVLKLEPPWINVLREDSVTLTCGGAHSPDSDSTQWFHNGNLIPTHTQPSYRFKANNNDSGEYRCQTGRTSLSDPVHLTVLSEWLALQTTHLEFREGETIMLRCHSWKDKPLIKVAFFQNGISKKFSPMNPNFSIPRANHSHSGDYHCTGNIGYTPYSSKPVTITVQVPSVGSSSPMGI
As to the kind of experiment: SPR; FcgR bound per captured antibody, normalized to SG1. The procedure: as §1
(§3) The value of the amount of FcγR binding was obtained by dividing the amount of FcγR bound by the amount of each antibody captured.

Test [18] has as its target T11, cynomolgus monkey FcγRIIa2 extracellular domain, C-terminal His-tag (cynomolgus monkey).
T11 construct: also called cyno FcγRIIa2; FcgRIIa2
T11 chain: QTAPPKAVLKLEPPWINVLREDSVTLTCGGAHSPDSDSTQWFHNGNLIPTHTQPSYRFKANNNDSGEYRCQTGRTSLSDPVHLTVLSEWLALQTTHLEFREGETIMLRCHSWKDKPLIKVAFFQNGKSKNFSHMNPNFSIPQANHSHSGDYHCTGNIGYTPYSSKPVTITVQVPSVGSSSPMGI
The description is as above. The protocol: as §1, §3

In test [19] the target is T12, cynomolgus monkey FcγRIIb extracellular domain, C-terminal His-tag (cynomolgus monkey).
T12 construct: also called cyno FcγRIIb; cynoFcγRIIb
T12 chain: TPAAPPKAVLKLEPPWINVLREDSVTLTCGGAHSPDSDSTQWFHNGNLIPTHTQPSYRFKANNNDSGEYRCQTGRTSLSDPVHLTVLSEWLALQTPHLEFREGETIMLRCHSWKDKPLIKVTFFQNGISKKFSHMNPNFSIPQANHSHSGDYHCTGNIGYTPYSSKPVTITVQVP
The description is as above. The protocol:
as §1, §3

For test [20], the target named is T13, cynomolgus monkey FcγRIIa1 extracellular domain, C-terminal His-tag (cynomolgus monkey).
T13 construct: also called cyno FcγRIIa1; FcgRIIa1
T13 chain: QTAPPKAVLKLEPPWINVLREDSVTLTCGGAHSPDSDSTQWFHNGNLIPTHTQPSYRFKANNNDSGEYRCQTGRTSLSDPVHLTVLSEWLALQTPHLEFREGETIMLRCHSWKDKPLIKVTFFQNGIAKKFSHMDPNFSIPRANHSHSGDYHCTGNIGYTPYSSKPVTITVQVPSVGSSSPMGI
The description is as above. The protocol:
as §1, §3

T9 sequence (P08637 17-208 F176V): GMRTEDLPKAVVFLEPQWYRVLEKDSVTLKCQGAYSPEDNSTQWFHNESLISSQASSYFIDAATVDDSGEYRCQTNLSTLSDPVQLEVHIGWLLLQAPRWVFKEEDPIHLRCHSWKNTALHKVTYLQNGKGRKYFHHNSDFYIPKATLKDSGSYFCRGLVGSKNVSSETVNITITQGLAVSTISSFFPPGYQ

B1: M103205H795-MY144/M103202L889-SK1 (antibody, human IgG1, kappa)
heavy: QVTLKESGPVLVKPTETLTLTCTVSGIDLSHDDISWVRQAPGKGLEWVGIISYAGSTYYASWAKGRLTISKDTSKNQVVLTMTNMDPVDTATYYCARGVPAYSHGGDLWGQGTLVTVSSASTKGPSVFPLAPSSKSTSGGTAALGCLVKDYFPEPVTVSWNSGALTSGVHTFPAVLQSSGLYSLSSVVTVPSSSLGTQTYICNVNHKPSNTKVDKKVEPKSCDKTHTCPPCPAPELLNGPSVFLFPPKPKDTLMISRTPEVTCVVVDVSDEDPEVKFNWYVDGVEVHNAKTKPREEQYNSTYRVVSVLTVLHQDWLNGKEYKCKVSNKALPAPIEKTISKAKGQPREPQVYTLPPSREEMTKNQVSLTCLVKGFYPSDIAVEWESNGQPENNYKTTPMVLDSDGSFFLYSKLTVDKSRWQQGNVFSCSVMHEALHNHYTQKSLSLSP
light: DIVMTQSPATLSLSPGERATLSCTSSQSVYHANWLSWFQQKPGQPPKLLIYWASTLAYGVPSRFSGSGSGTDFTLTISSLQPEDAATYYCAGGYGGGRYAFGQGTKVEIKRTVAAPSVFIFPPSDEQLKSGTASVVCLLNNFYPREAKVQWKVDNALQSGNSQESVTEQDSKDSTYSLSSTLTLSKADYEKHKVYACEVTHQGLSSPVTKSFNRGEC
notes: P369M is read as a misprint of P396M
Consider B1, for which the “KD fold (SG1 = 1)” value amounted to 4.1 fold in [1]; 0.8 fold in test [2]; 3.6 fold in [3]; 0.16 fold in test [4]; 4.5 fold in [5]; 6.2 fold in test [6]. The “KD fold (SG1 = 1)” value in test [7] was determined as 5.7 fold. For the same molecule, the Kd was found to be 440 nM in test [8]; 13 µM in test [9]; 650 nM in test [10]; 7.7 µM in test [11]; 890 nM in [12]; 2300 nM in [13]. Besides, the Kd in test [14] was determined as 3.8 µM; in [15], 740 nM; in test [16] it was 820 nM.

B2: M103205H795-SG175/M103202L889-SK1 (antibody, human IgG1, kappa)
heavy: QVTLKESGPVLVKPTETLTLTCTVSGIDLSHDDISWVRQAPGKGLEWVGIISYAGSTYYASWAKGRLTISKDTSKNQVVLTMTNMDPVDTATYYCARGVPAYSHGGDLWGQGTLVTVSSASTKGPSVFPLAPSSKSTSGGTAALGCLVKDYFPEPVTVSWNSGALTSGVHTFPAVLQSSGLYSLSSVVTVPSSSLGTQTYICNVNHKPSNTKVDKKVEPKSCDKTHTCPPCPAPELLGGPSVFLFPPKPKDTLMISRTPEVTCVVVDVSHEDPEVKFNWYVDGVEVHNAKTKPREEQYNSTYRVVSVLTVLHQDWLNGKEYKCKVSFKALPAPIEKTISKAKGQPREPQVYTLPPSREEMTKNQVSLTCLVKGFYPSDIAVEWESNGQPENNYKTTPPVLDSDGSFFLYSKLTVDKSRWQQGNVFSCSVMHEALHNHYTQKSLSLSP
light: DIVMTQSPATLSLSPGERATLSCTSSQSVYHANWLSWFQQKPGQPPKLLIYWASTLAYGVPSRFSGSGSGTDFTLTISSLQPEDAATYYCAGGYGGGRYAFGQGTKVEIKRTVAAPSVFIFPPSDEQLKSGTASVVCLLNNFYPREAKVQWKVDNALQSGNSQESVTEQDSKDSTYSLSSTLTLSKADYEKHKVYACEVTHQGLSSPVTKSFNRGEC
notes: also called N325F
For the molecule B2, the “amount of FcgR binding (SG1 = 100)” value was 17 SG1 = 100 in test [17], 13 SG1 = 100 in [18], 14 SG1 = 100 in test [19] and 13 SG1 = 100 in test [20].
